Assay results published in article PMC9943652.

Molecular target: coreTFIIH (7-subunit: XPB, XPD, p62, p52, p44, p34, p8);XPG (human;human) (UniProt P19447+P18074+P32780+Q92759+Q13888+Q13889+Q6ZYL4+P28715)
Assay: EMSA

Sequence | binding signal (fold lower Kd than XPG alone) (cholesterol moiety at N (between S12 and S13), position 11 from ss/ds junction) | binding signal (fold lower Kd than XPG alone) (cholesterol moiety at N (between S10 and S11), position 4 from ss/ds junction)
TTTTTTTTTTTTTTTTTTTTTTTTTTTTTNTTTTTTTTTTGCCTCGCTGCCGTCGCCA / TGGCGACGGCAGCGAGGC [Chol11] | 8 | 
TTTTTTTTTTTTTTTTTTTTTTTTTTTTTTTTTTTTNTTTGCCTCGCTGCCGTCGCCA / TGGCGACGGCAGCGAGGC [Chol4] |  | 7
